Substitutions are numbered along the chain they refer to.
B1: mAb 236 (antibody, V domains shown)
VH: QVQLVQSGAEVKKPGASVKVSCKASGGTFTSYGINWVRQAPGQGLEWMGWMNPNSGNTGYAQKFQGRVTMTRDTSTSTVYMELSSLRSEDTAVYYCASRGIQLLPRGMDVWGQGTTVTVSS
VL: not shown
B2: mAb 46 (antibody, V domains shown)
VH: EVQLLESGGGLVQPGRSLRLSCAASGFTFSSYAMSWVRQAPGKGLEWVSTIYSGGSTYYADSVKGRFTISRDNSKNTLYLQMNSLRAEDTAVYYCARGDSRDAFDIWGQGTMVTVSS
VL: DIQMTQSPSSLSASVGDRVTITCRASQSISSWLAWYQQKPGKAPKLLIYDASNLETGVPSRFSGSGSGTDFTLTISSLQPEDFATYYCQQSYSTPFTFGPGTKVDIKR
B3: mAb 324 (antibody, V domains shown)
VH: QVQLVQSGAEVKKPGASVKVSCKASGGTFNNYGISWVRQAPGQGLEWMGWMNPNSGNTGYAQKFQGRVTMTRDTSTSTVYMELSSLRSEDTAVYYCARVGDYGDYIVSPFDLWGRGTLVTVSS
VL: B2 VL with S30T, S31T, W32Y, A34N, F96P, P100Q, D105E
B4: mAb 52 (antibody, V domains shown)
VH: QVQLVQSGAEVKKPGSSVKVSCKASGYTFTSYGISWVRQAPGQGLEWMGGIIPMFGTTNYAQKFQGRVTITADKSTSTAYMELSSLRSEDTAVYYCARDRGDTIDYWGQGTLVTVSS
VL: DIQMTQSPSSLSASVGDRVTITCRASQGISNNLNWYQQKPGKAPKLLIYAASSLESGVPSRFSGSGSGTDFTLTISSLQPEDFATYYCQQGNGFPLTFGPGTKVDIKR
B5: mAb 82 (antibody, V domains shown)
VH: QVQLVQSGAEVKKPGASVKVSCKASGGSFSTSAFYWVRQAPGQGLEWMGWINPYTGGTNYAQKFQGRVTMTRDTSTSTVYMELSSLRSEDTAVYYCARSRALYGSGSYFDYWGQGTLVTVSS
VL: B2 VL with S28V, S31N, W32Y, Y92F, T94P, F96P, P100Q, K103R, V104L, D105E

molecular target: Spike of authentic SARS-CoV-2/SB2-P4-PB virus (SARS-CoV-2, UniProt P0DTC2 14-1273); test: cell-based or functional assay

Binder	IC50 SARS-CoV2/SB2-P4-PB (authentic virus), IgG [µg/mL]
B1	5.5
B2	19
B3	21
B4	6.2

molecular target: SARS-CoV-2 Spike N439K on pseudotyped virus (SARS-CoV-2, UniProt P0DTC2 14-1273); test: cell-based or functional assay

Binder	Potency change vs WT PsV [fold]
B1	2.1
B2	4.1
B3	-1
B5	1.1
B4	1.8

molecular target: SARS-CoV-2 Spike D614G on pseudotyped virus (SARS-CoV-2, UniProt P0DTC2 14-1273); test: cell-based or functional assay

Binder	Potency change vs WT PsV [fold]
B1	0.7
B2	1.9
B3	2.6
B4	0.4

molecular target: SARS-CoV-2 Spike L452R on pseudotyped virus (SARS-CoV-2, UniProt P0DTC2 14-1273); test: cell-based or functional assay

Binder	Potency change vs WT PsV [fold]	IC50 (PsV neutralisation) [µg/mL]
B1	-0.6	–
B2	–	> 100
B3	0.8	–
B5	-8.1	–
B4	–	> 100

molecular target: SARS-CoV-2 Spike A475V on pseudotyped virus (SARS-CoV-2, UniProt P0DTC2 14-1273); test: cell-based or functional assay

Binder	Potency change vs WT PsV [fold]
B1	1.4
B2	1.9
B3	-0.6
B5	-5.7
B4	1.1

molecular target: SARS-CoV-2 Spike V483A on pseudotyped virus (SARS-CoV-2, UniProt P0DTC2 14-1273); test: cell-based or functional assay

Binder	Potency change vs WT PsV [fold]
B1	1.9
B2	2
B3	-0.4
B5	0.2

molecular target: T1, SARS-CoV-2 receptor binding domain (RBD), wild type (BEI NR52309) (SARS-CoV-2, UniProt P0DTC2 319-541); test: BLI competition on His-tagged RBD, signal of the 2nd Ab after 1st Ab 236

Binder	RBD binding
B1	0.3
B2	1.7
B3	0.3
B4	1.5

molecular target: T1, SARS-CoV-2 receptor binding domain …; test: BLI competition on His-tagged RBD, signal of the 2nd Ab after 1st Ab 298

Binder	RBD binding
B2	1.7
B5	0.5
B4	1.4

molecular target: T1, SARS-CoV-2 receptor binding domain …; test: BLI competition on His-tagged RBD, signal of the 2nd Ab after 1st Ab 324

Binder	RBD binding
B1	0.4
B2	1.7
B3	0.4
B5	0.8
B4	1.5
